These results are taken from patent US20180237497A1 (CANCER RESEARCH TECHNOLOGY, published 2018).

Assay [1] has as its target T1, human IGF2^1-67 (mature insulin-like growth factor 2) (human, UniProt P01344 25-91, biotinylated (site not stated) where immobilised on the chip (Tables 1-4)).
T1 construct: mature; also called mature IGF2; biotinylated IGF2
Nature of the assay: SPR. From the text: Surface plasmon resonance (SPR) binding analysis of recombinant M6P/IGF2R domain 11 mutants interaction with IGF2. Kon indicates association (on) rate; koff, dissociation (off) rate; RU, response units. Binding to IGF2 assessed with BIAcore T200 using purified biotinylated IGF2 and IGF1 on a streptavidin biosensor chip. Recombinant proteins were expressed either in E. coli and/or P. pastoris. All the mutants in the FG and CD loops are on the domain 11^AB5 background for the AB loop unless otherwise stated. All experiments were carried out at 25° C. in HBS-EP buffer (pH 7.4), were repeated 2-5 times on two independent BIAcore chips. nd=not determined. Data for KD expressed as mean of each experiment, and means of kon and koff are shown.
(§1) Final kinetic analysis of mutants by SPR was conducted using a Biacore T200 biosensor at 25° C. in either HBS-EP (10 mM HEPES pH 7.4, 150 mM NaCl, 3 mM EDTA, and 0.005% (v/v) surfactant P20) or MES-EP (20 mM MES pH 6.5, 150 mM NaCl, 3 mM EDTA, and 0.005% (v/v) surfactant P20) at a flow-rate of 40 μL min⁻¹. […] For the analysis of the Fc-domain 11^AB5 interaction, approximately 50 RU of a biotinylated IGF2:biotinylated ubiquitin mixture (1:8 proportion) was immobilized on the CM5-streptavidin chip. This interaction was also analysed by immobilizing the Fc-domain 11^AB5 and Fc-domain 11^AB5-RHH (or Fc-domain 11^I1572A as control) by Human Antibody Capture (monoclonal mouse anti-human IgG antibody immobilised on a CM5 chip by amine coupling, GE Healthcare) with and without human IgG1 Fc fragment (Bethyl Laboratories, UK) in the control flow cell. […] T200 BiaEvaluation software (GE Healthcare) was used to fit the resulting curves according to a 1:1 binding model.

Assay [2] addresses T1, human IGF2^1-67 (mature insulin-like …). Nature of the assay: SPR kinetic, biotin-IGF2 on chip, pH 6.5. How it is done: Measurements were carried out at 25° C. in MES-EP buffer, 20 mM MES pH 6.5, 150 mM NaCl, 3 mM EDTA, and 0.005% (v/v) surfactant P20). Data for KD expressed as mean of each experiment, and means of kon and koff are shown.
as §1, with “model. Steady state affinities were determined using the kinetic data, taking the response average at 5 seconds before injection end and for 5 seconds average. Thermodynamic data was performed across the temperature range of 10° C. to 30° C., van't Hoff and Erying plots generated and ΔH, −TΔS and ΔG values determined as previously described.” for “model.”
(Surface plasmon resonance follows binding to a sensor surface in real time, without labels.)

Assay [3] shares this target. Nature of the assay: SPR steady state, biotin-IGF2 on chip, pH 7.4. A digest of the protocol: (§2)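 Biacore SPR at 25 °C in HBS-EP pH 7.4 or MES-EP pH 6.5, flow 40 μL/min; ~50 RU biotin-IGF2:biotin-ubiquitin (1:8) on streptavidin chip, or Fc-domain 11 captured via anti-human IgG. Kinetics fitted to 1:1 model; steady-state affinity from response averaged 5 s before injection end.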

Assay [4] shares this target. Nature of the assay: SPR kinetic, biotin-IGF2 on chip, pH 7.4. A digest of the protocol: as §2
Assay [5] shares this target. Nature of the assay: SPR kinetic, biotin-IGF2 on chip, pH 7.4. A digest of the protocol:
(§3)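 Biotinylated IGF2 captured on streptavidin chip; recombinant M6P/IGF2R domain 11 mutants (E. coli or P. pastoris) injected at 25° C in HBS-EP, pH 7.4, 40 μL min⁻¹. Kinetics fitted to 1:1 model; steady-state KD from 5 s response averages before injection end; 2-5 repeats on two chips.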
This is another data set of the same source.

For assay [6] the target is unchanged. Nature of the assay: SPR steady state, biotin-IGF2 on chip, pH 7.4. A digest of the protocol: as §3
This is another data set of the same source.

Assay [7] shares this target. Nature of the assay: SPR (Biacore T200, 25 °C, HBS-EP pH 7.4); ΔΔG° = RT ln(KD mutant / KD domain 11^AB3); box AB. The procedure: (§4) Boxes show the change in the binding free energy contribution, ΔΔGº, for the indicated mutants. The loop/s that contains the mutation/s is indicated in each box. The ΔΔGº values were calculated as ΔΔGº=ΔGº domain 11^mutant−ΔGº domain 11^AB3=RTln(KD domain 11^mutant/KD domain 11^AB3). Additive and non-additive contributions of single point mutations are shown when calculated with a box solid line and dashed line, respectively.
(§5) Final kinetic analysis of mutants by SPR was conducted using a Biacore T200 biosensor at 25° C. in either HBS-EP (10 mM HEPES pH 7.4, 150 mM NaCl, 3 mM EDTA, and 0.005% (v/v) surfactant P20) or MES-EP (20 mM MES pH 6.5, 150 mM NaCl, 3 mM EDTA, and 0.005% (v/v) surfactant P20) at a flow-rate of 40 μL min⁻¹. […] This interaction was also analysed by immobilizing the Fc-domain 11^AB5 and Fc-domain 11^AB5-RHH (or Fc-domain 11^I1572A as control) by Human Antibody Capture (monoclonal mouse anti-human IgG antibody immobilised on a CM5 chip by amine coupling, GE Healthcare) with and without human IgG1 Fc fragment (Bethyl Laboratories, UK) in the control flow cell. […] Steady state affinities were determined using the kinetic data, taking the response average at 5 seconds before injection end and for 5 seconds average.

For assay [8] the target is unchanged. Nature of the assay: SPR (Biacore T200, 25 °C, HBS-EP pH 7.4); ΔΔG° = RT ln(KD mutant / KD domain 11^AB3); box AB+CD+FG+FG. The procedure:
as §4, §5

The target is the same in assay [9]. Nature of the assay: SPR, biotin-IGF2 on chip, lower pH (6.5); reference domain 11^WT. The procedure: as §1, with “model. Steady state affinities were determined using the kinetic data, taking the response average at 5 seconds before injection end and for 5 seconds average. Thermodynamic data was performed across the temperature range of 10° C. to 30° C., van't Hoff and Erying plots generated and ΔH, −TΔS and ΔG values determined as previously described.” for “model.”

Assay [10] has the same target. Nature of the assay: SPR, pH 7.4; pH 7.4. How it is done: as §1, with “model. Steady state affinities were determined using the kinetic data, taking the response average at 5 seconds before injection end and for 5 seconds average. Thermodynamic data was performed across the temperature range of 10° C. to 30° C., van't Hoff and Erying plots generated and ΔH, −TΔS and ΔG values determined as previously described.” for “model.”

Assay [11] shares this target. Nature of the assay: SPR (Biacore T200, 25 °C, HBS-EP pH 7.4); ΔΔG° = RT ln(KD mutant / KD domain 11^AB3); box AB+CD+FG+FG, dashed outline. The procedure: as §4, §5
Assay [12] shares this target. Nature of the assay: SPR (Biacore T200, 25 °C, HBS-EP pH 7.4); ΔΔG° = RT ln(KD mutant / KD domain 11^AB3); box AB+CD+FG+FG, solid outline. How it is done: as §4, §5

T1 sequence (P01344 25-91): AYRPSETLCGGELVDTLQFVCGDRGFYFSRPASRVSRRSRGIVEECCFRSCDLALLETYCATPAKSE

B1: IGF2R domain 11^AB5 (receptor)
chain: MKSNEHDDCQVTNPSTGHLFDLSSLSGRAGFTAAYAKGWGVYMSICGENENCPPGVGACFGQTRISVGKANKRLRYVDQVLQLVYKDGSPCPSKSGLSYKSVISFVCRPEAGPTNRPMLISLDKQTCTLFFSWHTPLACEQATECSV
notes: His6-tagged soluble domain 11; also called 1542YAKGWG1547
As usually defined, the Kd is a measure of binding affinity in units of concentration. By koff is commonly meant a measure of how fast the partners let go of each other. Low readings indicate a long-lived complex, high ones a short-lived complex. Broadly, the kon is a measure of how fast the partners come together. High values mean fast association, low ones slow association. In the case of B1, the “fold higher affinity than domain 11^WT” value in assay [1] was found to be 10 fold. The Kd in assay [2] amounted to 4.38 nM; in assay [3], 6.44 nM; in assay [4], 5.07 nM; in assay [5], 5.07 nM; in [6], 6.44 nM. Besides, the values for the koff in assay [2], in assay [4] and in assay [5] were 0.018 s⁻¹, 0.0208 s⁻¹ and 0.0208 s⁻¹, respectively. Besides, the figures for the kon in [2], in [4] and in [5] were 4.17e+06 M⁻¹ s⁻¹, 4.21e+06 M⁻¹ s⁻¹ and 4.21e+06 M⁻¹ s⁻¹, respectively. Besides, in [7], the ΔΔG is -0.65 kcal/mol.

B2: domain 11^AB3 Q1569R P1597H S1602H G1603K (receptor)
chain: MKSNEHDDCQVTNPSTGHLFDLSSLSGRAGFTAAYSKSGVVYMSICGENENCPPGVGACFGRTRISVGKANKRLRYVDQVLQLVYKDGSHCPSKHKLSYKSVISFVCRPEAGPTNRPMLISLDKQTCTLFFSWHTPLACEQATECSV
notes: See m5
In the case of B2, the ΔΔG in [8] was -1.9 kcal/mol. Also, in [9], the “fold improved overall affinity compared to domain 11^WT” value came to 100 fold. For the same molecule, the dissociation constant Kd was 0.43 nM in [2], 0.78 nM in assay [10], 1.31 nM in assay [3] and 0.62 nM in [4]. Moreover, the koff was determined as 0.0087 s⁻¹ in [2] and 0.0108 s⁻¹ in assay [4]. Also, the results for the kon in [2] and in [4] were 2.43e+07 M⁻¹ s⁻¹ and 1.75e+07 M⁻¹ s⁻¹, respectively.

B3: domain 11^AB5 Q1569R P1597H G1603K (receptor)
chain: MKSNEHDDCQVTNPSTGHLFDLSSLSGRAGFTAAYAKGWGVYMSICGENENCPPGVGACFGRTRISVGKANKRLRYVDQVLQLVYKDGSHCPSKSKLSYKSVISFVCRPEAGPTNRPMLISLDKQTCTLFFSWHTPLACEQATECSV
notes: See m5
Regarding B3, in assay [2], the Kd amounted to 0.69 nM, the koff was determined as 0.0051 s⁻¹ and the kon came to 7.54e+06 M⁻¹ s⁻¹. The molecule also came in with a Kd in assay [3] of 2.01 nM. In assay [11], this molecule came in with a ΔΔG of -1.7 kcal/mol. In assay [4], this molecule returned a Kd of 0.87 nM, a koff of 0.0058 s⁻¹ and a kon of 6.67e+06 M⁻¹ s⁻¹.

B4: domain 11^AB5 Q1569R P1597H S1602H (receptor)
chain: MKSNEHDDCQVTNPSTGHLFDLSSLSGRAGFTAAYAKGWGVYMSICGENENCPPGVGACFGRTRISVGKANKRLRYVDQVLQLVYKDGSHCPSKHGLSYKSVISFVCRPEAGPTNRPMLISLDKQTCTLFFSWHTPLACEQATECSV
notes: See m5
As for B4, in assay [12], the ΔΔG is -1.87 kcal/mol. In assay [2], this molecule registered a Kd of 0.71 nM, a koff of 0.003 s⁻¹ and a kon of 4.41e+06 M⁻¹ s⁻¹. Further, the Kd in [3] was 2 nM. In assay [4], this molecule came in with a dissociation constant (Kd) of 0.65 nM, a koff of 0.0038 s⁻¹ and a kon of 5.9e+06 M⁻¹ s⁻¹.
